Values joined by “and” are separate entries in the source; they are usually repeats but may differ in a detail not shown here. Equal values may be shown once.
Assays:
[1] = biological target: MyoF-Motor (MyoF lacking its WD40 tail domain, a.a. 1–1265, C-terminal biotin–FLAG tag), heavy chain (T. gondii)
[2] = biological target: MyoF-Motor (MyoF lacking its WD40 tail domain, a.a. 1–1265, C-terminal biotin–FLAG tag), heavy chain (T. gondii); experiment: thermal denaturation (calmodulin-binding) assay
[3] = biological target: MyoF-Tail (coiled-coil region, linker and WD40 domain, a.a. 987–1953, C-terminal biotin–FLAG tag) (T. gondii); experiment: SEC; analytical; 0.25 mg/ml MyoF-Tail on Superdex 10/300 GL; 10 mM imidazole pH 7.4, 300 mM NaCl, 1 mM EGTA, 1 mM DTT; standards ferritin 440 kDa and thyroglobulin 660 kDa
[4] = biological target: full-length MyoF with a C-terminal biotin–FLAG tag, heavy chain (T. gondii); experiment: negative-stain electron microscopy; negatively stained images of purified myosin constructs with co-purified light chain
[5] = biological target: MyoF-Motor (MyoF lacking its WD40 tail domain, a.a. 1–1265, C-terminal biotin–FLAG tag), heavy chain (T. gondii); experiment: as above
[6] = biological target: Toxoplasma gondii actin (TgAct1) filaments (T. gondii) (UniProt P53476); experiment: single-molecule motility assay (fluorescence microscopy); full-length MyoF mixed 1:5 with Alexa Fluor 647–streptavidin; TgAct1 filaments (jasplakinolide-stabilised or unstabilised) or skeletal actin-fascin bundles (phalloidin or jasplakinolide) held on the flow cell; 2 mM MgATP; 37°C
[7] = biological target: Toxoplasma gondii actin (TgAct1) filaments (T. gondii) (UniProt P53476)

Q: For “TgCam (calmodulin), untagged, co-expressed in Sf9 cells (natural protein)”, which in vitro gliding filament motility speed of MyoF-Motor bound to only TgCam (skeletal actin) [1] is on record?
A: 1.2 µm/s

Q: And the stoichiometry N (calmodulin light chains per heavy chain) [2]?
A: 3

Q: For “MyoF-Tail (coiled-coil region, linker and WD40 domain, a.a. 987–1953, C-terminal biotin–FLAG tag) (domain or fragment)”, which stoichiometry N [3] is on record?
A: > 6

Q: With “full-length MyoF with a C-terminal biotin–FLAG tag, heavy chain (natural protein)” as the substance, how does the stoichiometry N [4] read?
A: 3 heads and 6 heads

Q: How did the stoichiometry N [5] turn out when “MyoF-Motor (MyoF lacking its WD40 tail domain, a.a. 1–1265, C-terminal biotin–FLAG tag), heavy chain (domain or fragment)” was run?
A: 2

Q: With “full-length MyoF co-purified with TgCam (complex)” as the substance, how does the pause time at filament ends [6] read?
A: 1.5 s

Q: What about the run length (λ) of single full-length MyoF complexes on jasplakinolide-stabilized TgAct1 filaments [7] of the same substance?
A: 1.14 µm

Q: What about the velocity of single full-length MyoF complexes on jasplakinolide-stabilized TgAct1 filaments [7] of the same substance?
A: 1.5 µm/s

From article PMC13120683
